From PMC6269517

Molecular target: Cy5-S15(T79C), 30S ribosomal protein S15 (Escherichia coli, UniProt P0ADZ4 1-89, T79C)
Assay: single-molecule FRET (ZMW); pre-folded; >80% of molecules bind stably; read-out is H20-H22 closure, S15 label in this assay not stated; 50 mM Tris pH 7.5, 14 mM MgCl2, 20 mM NaCl, 150 mM KCl, 0.04 mM EDTA, 40 ug/ml BSA, 0.01% Triton X-100, 2 mM spermidine, 1 mM putrescine; 20 C unless stated; 0.

B1: 85 nt minimal 3-way junction (p0099A/B/C) (structured_RNA)
RNA 1: GGCGCACGCAGGCGGUUUGCCG
RNA 2: CGGCAAGCUUGAGUCUCGUAGAGGGGGGU
RNA 3: GCCCCCUGGACGAAGACUGACGCUCAGGUGCGCC
B1: binds.
